Measurements as given in patent US20190330271A1 (HANGZHOU WISDOM PANACEA BIOLOGICS, published 2019).

B1: SEQ ID NO: 8, histidine-tagged (peptide)
peptide: SAFNNKR
notes: also called ZR with position 2 substituted with alanine; not shown: histidine tag
B2: SEQ ID NO: 10, histidine-tagged (peptide)
peptide: SFFANKR
notes: also called ZR with position 4 substituted with alanine; not shown: histidine tag

Target: T1, Aβ42 oligomers (UniProt P05067 672-713)
T1 construct: domain: Aβ42; Oligomeric state
T1 sequence (P05067 672-713 limits assumed): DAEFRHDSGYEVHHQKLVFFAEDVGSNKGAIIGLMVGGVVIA
Experiment: ELISA on coated Aβ42 oligomers, His-tagged polypeptide at 1 µg per well

| Binder | OD450 |
| --- | --- |
| B1 | 0.48 |
| B2 | 0.57 |
